Columns and labels:
HA-tagged LC8 = assay: co-immunoprecipitation of LC8 with full-length FLAG-LCA5 in HEK293 cells; type: cell-based, human; conditions: for co-immunoprecipitation of LC8: HEK-293, FLAG-LCA5 and HA-LC8 co-expressed 48 h, anti-LCA5 and anti-FLAG antibodies
Experimental: HEK-293 cells were transfected with FLAG-LCA5-pcDNA3.1 + and HA-LC8-pcDNA3.1 + constructs and incubated for 48 h. After 48 h, cells were washed with ice-cold DPBS (Lonza) and lysed on ice with lysis buffer (50 mM TRIS 2 mM EDTA 100 mM NaCl 10% Glycerol and 0.5% IGEPAL supplemented with protease (Sigma Aldrich) and phosphatase (Sigma-Aldrich) inhibitors). Total protein concentration was determined by the BCA kit (Sigma Aldrich). For each co-immunoprecipitation reaction 1 mg total protein was used and 20 μg of anti-lebercilin (19,333-1-AP Proteintech), anti-LC8 (16,811–1-AP Proteintech), polyclonal antibody, anti-FLAG (8146 Cell Signaling Technologies), anti-MYC (2276 Cell Signaling Technologies) or anti-HA (sc-7392 Santa Cruz Biotechnology) monoclonal antibody was added respectively and incubated for 4 h at 4 °C. The immunocomplexes were incubated with protein A/G sepharose beads (Cell Signaling Technologies) overnight. The immunocomplex-containing beads were washed three times in lysis buffer, then two times in detergent-free lysis buffer, proteins were eluted by boiling in 2 × Laemmli buffer. The samples were analyzed by 10% tricine-SDS PAGE. The SDS gel was cut half above the 35 kDa marker band and subsequently blotted onto two separate Amersham Hybond PVDF membrane (GE Healthcare). The LCA5 containing upper half was blotted for 180 min, the LC8 containing lower part was blotted for 80 min. The membranes were blocked in 5% BSA and the LCA5 and LC8 containing parts are incubated with mouse anti-FLAG 1:1000 (8146 Cell Signaling Technologies), and rabbit anti-LC8 1:1000 (ab51603 Abcam) primary antibodies respectively overnight at 4 °C. After washing with TBS-T, membranes were incubated with secondary antibodies (ECL PLEX Goat-Anti-Rabbit IgG CY5 1:1500 and CL PLEX Goat-Anti-Mouse IgG CY3 1:1500, Ge Healthcare) for 1 h at room temperature, then scanned in a Typhoon scanner (GE Healthcare).

LC8 [1] = biological target: T1, LC8 (Homo sapiens, UniProt Q96FJ2); assay: isothermal titration calorimetry, sLCA5 fragments titrated with LC8; type: binding; conditions: ITC, PBS pH 7.4, 1 mM TCEP, 37 °C; MBP-fused sLCA5 titrated with LC8
T1 construct: 6xHis (N); made in house; host or cells: E. coli BL21 (DE3) Rosetta
Experimental: LC8 and MBP-fused LCA5 constructs were prepared in PBS supplemented with 1 mM TCEP. Before measurement, protein samples were dialyzed overnight in PBS pH 7.4 (Orange Scientific, OrDial D14 membrane). Peptides were diluted from stock with the buffer used for dialysis. The concentration of samples was determined based on absorbance at 280 nm in the case of proteins, and 205 nm for the peptide. Experiments were performed using MicroCal PEAQ-ITC (Malvern Panalytical), LCA5 peptides were measured at 25 °C, proteins were analyzed at 37 °C. Lebercilin peptide was injected into the cell 18 times 2 μl volumes, with 5 min timing between injections. In case of the protein, LCA5 was placed in the sample cell, and LC8 was injected during 37 injections, 1 μl each. The results were evaluated using MicroCal PEAQ-ITC Analysis Software.

LC8 [2] = biological target: T1, LC8; assay: SDS-PAGE densitometric analysis of gel filtration fractions (sLCA5:LC8 molar ratio); type: binding; conditions: SDS-PAGE densitometry; result in words
Experimental: (§1) For analytical gel filtration a Superose 6 Increase 10/300 (Cytiva) was used with an effective resolution between 5–5000 kDa range and a void volume above 5000 kDa. The column was equilibrated in DPBS supplemented with 200 μM TCEP. The calibration curve was fitted on the chromatogram of gel filtration standard mix (BioRad) with the addition of Dextran Blue to determine the void volume. 100 μl of LCA5 purified protein or LCA5-LC8 complex was injected at the concentration of 30 μM for LCA5 and 150 μM for LC8, with a flow rate of 500 μl/min immediately or after 60 min of incubation at 37 °C. For densitometric analysis, fractions were collected and 200 μl of samples were precipitated in 1.8 ml 96% ethanol at − 80 °C for 2 h. The samples were centrifugated for 30 min at 14,000 g, and dissolved in 15 μl of SDS sample buffer. 10 μl of each sample was run on Tricine-SDS gel. The calibration of the densitometry was performed on samples of known molar ratio of sLCA5 construct and LC8 (see the original gel used for calibration on Suplementary Fig. S16). Data evaluation was performed by using Origin 8 software and Fiji ImageJ software.

GST-fused LC8 = assay: GST pull-down of LC8 and sLCA5; type: binding; conditions: GST-LC8 bait, MBP-, 6x-His-fused sLCA5 prey, PBS, 1 mM DTT, room temperature; result in words
Experimental: For the pull-down experiments, GST-fused LC8 was used as bait, and MBP-, 6x-His-fused LCA5 variants as prey. For controls, GST and MBP were used. Proteins were expressed in 100 ml cultures of E. coli BL21 (DE3) Rosetta cells as described above. Cells were harvested, resuspended in 5 ml PBS supplemented with 1 mg/ml lysozyme and 1 mM DTT, sonicated and clarified by centrifugation. 20 μl of Glutathione Sepharose 4B (Macherey–Nagel) (75%) resin was used for each experiment. Baits were incubated with the resin for 1 h at room temperature, then washed with PBS supplemented with 1 mM DTT. Prey proteins were added and incubated for one hour. The beads were washed and eluted by boiling in a 2 × SDS sample buffer and analyzed in tricine SDS page according to the protocol of Schagger et al[43].

[3] = negative staining transmission electron microscopy of sLCA5-LC8 complexes; type: physicochemical
Experimental: For TEM negative staining experiments, a JEOL JEM-1011 (JEOL Ltd., Tokyo, Japan) electron microscope was used. The purified LCA5-LC8 complexes or LC8 or LCA5 forms alone were put together by using LCA5-WT or the single or double mutants at 30 μM and LC8 at 150 μM concentration in a buffer of 20 mM Tris 70 mM NaCl, pH 7.4, and incubated at 37 °C for 1 h. The complexes were diluted to a final 0.2 mg/ml concentration in the buffer and applied to 300 mesh formvar/carbon-coated copper grids (SPI Inc., USA). After 2 min of incubation the surplus was removed by filter paper and 1% uranyl acetate was applied for 1 min as negative staining. Images were taken around the middle of the grid at 5000, 50,000, 150,000 and 300,000-fold magnification. The collected data was analyzed by Fiji ImageJ software, and the statistical analysis was carried out in Origin 8 software.

[4] = analytical gel filtration; type: physicochemical; conditions: with LC8, 60 min at 37 °C vs non-incubated complex
Experimental: as §1

T1 sequence (Q96FJ2 whole entry, the tested form may be a part): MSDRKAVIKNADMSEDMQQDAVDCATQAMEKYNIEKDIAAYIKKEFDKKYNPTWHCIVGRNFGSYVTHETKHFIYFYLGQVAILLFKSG

B1: FLAG-LCA5: full-length LCA5 with N-terminal FLAG-tag (protein)
chain: MGERAGSPGTDQERKAGKHHYSYLSDFETPQSSGRSSLVSSSPASVRRKNPKRQTSDGQVHHQAPRKPSPKGLPNRKGVRVGFRSQSLNREPLRKDTDLVTKRILSARLLKINELQNEVSELQVKLAELLKENKSLKRLQYRQEKALNKFEDAENEISQLIFRHNNEITALKERLRKSQEKERATEKRVKDTESELFRTKFSLQKLKEISEARHLPERDDLAKKLVSAELKLDDTERRIKELSKNLELSTNSFQRQLLAERKRAYEAHDENKVLQKEVQRLYHKLKEKERELDIKNIYSNRLPKSSPNKEKELALRKNAACQSDFADLCTKGVQTMEDFKPEEYPLTPETIMCYENKWEEPGHLTLDLQSQKQDRHGEAGILNPIMEREEKFVTDEELHVVKQEVEKLEDEWEREELDKKQKEKASLLEREEKPEWETGRYQLGMYPIQNMDKLQGEEEERLKREMLLAKLNEIDRELQDSRNLKYPVLPLLPDFESKLHSPERSPKTYRFSESSERLFNGHHLQDISFSTPKGEGQNSGNVRSPASPNEFAFGSYVPSFAKTSERSNPFSQKSSFLDFQRNSMEKLSKDGVDLITRKEKKANLMEQLFGASGSSTISSKSSDPNSVASSKGDIDPLNFLPGNKGSRDQEHDEDEGFFLSEGRSFNPNRHRLKHADDKPAVKAADSVEDEIEEVALR
modifications: left off: FLAG, N-terminal, kept
notes: full-length LCA5 with N-terminal FLAG-tag
co-immunoprecipitation of LC8 (HA-tagged LC8): interaction was detected
co-immunoprecipitation of LC8 (HA-tagged LC8; listed as FLAG-tagged LCA5): LC8 was co-precipitated
co-immunoprecipitation interaction (HA-tagged LC8; HEK-293, FLAG-LCA5 and HA-LC8 co-expressed, precipitation with anti-HA and anti-LC8 antibodies): no

B2: sLCA5-ΔVQT: sLCA5 with the three core residues VQT exchanged for three alanines (protein)
chain: DTDLVTKRILSARLLKINELQNEVSELQVKLAELLKENKSLKRLQYRQEKALNKFEDAENEISQLIFRHNNEITALKERLRKSQEKERATEKRVKDTESELFRTKFSLQKLKEISEARHLPERDDLAKKLVSAELKLDDTERRIKELSKNLELSTNSFQRQLLAERKRAYEAHDENKVLQKEVQRLYHKLKEKERELDIKNIYSNRLPKSSPNKEKELALRKNAACQSDFADLCTKGAAAMEDFKPEEYPLTPETIMCYENKWEEPGHLTLDLQSQKQDRHGEAGILNPIMEREEKFVTDEELHVVKQEVEKLEDEWEREELDKKQKEKASLLER
modifications: left off: MBP, N-terminal, kept | His6, C-terminal, kept
notes: sLCA5 with the three core residues VQT exchanged for three alanines
− TΔS (LC8 [1]): 18.1 kJ/mol
LC8 content of fraction (LC8 [2]): only a trace amount of LC8
interaction with LC8 (GST pull-down) (GST-fused LC8): did not abolish the interaction with LC8

B3: sLCA5-ΔCQS: sLCA5 with alanine mutations in the CQS motif core; VQT motif intact (protein)
chain: DTDLVTKRILSARLLKINELQNEVSELQVKLAELLKENKSLKRLQYRQEKALNKFEDAENEISQLIFRHNNEITALKERLRKSQEKERATEKRVKDTESELFRTKFSLQKLKEISEARHLPERDDLAKKLVSAELKLDDTERRIKELSKNLELSTNSFQRQLLAERKRAYEAHDENKVLQKEVQRLYHKLKEKERELDIKNIYSNRLPKSSPNKEKELALRKNAAAAADFADLCTKGVQTMEDFKPEEYPLTPETIMCYENKWEEPGHLTLDLQSQKQDRHGEAGILNPIMEREEKFVTDEELHVVKQEVEKLEDEWEREELDKKQKEKASLLER
modifications: left off: MBP, N-terminal, kept | His6, C-terminal, kept
notes: sLCA5 with alanine mutations in the CQS motif core; VQT motif intact
− TΔS (LC8 [1]): 0.29 kJ/mol
measured diameter median of spherical complexes ([3]; 30 μM sLCA5 + 150 μM LC8, 37 °C 1 h, 20 mM Tris 70 mM NaCl pH 7.4): 32 nm
amount of detectable oligomeric particles ([3]; TEM, result in words): notable amount of particles around the edges of the grids
void fraction increment on incubation [4]: 35%
interaction with LC8 (GST pull-down) (GST-fused LC8): maintained the interaction with LC8
